Target: hIK1 intermediate conductance, calcium-activated potassium channel (human) (UniProt O15554)
Assay: cell-based or functional assay

hIK1 intermediate conductance, calcium-activated potassium channel (human), sequence (O15554 other isoform, or with tags, fused parts or gaps): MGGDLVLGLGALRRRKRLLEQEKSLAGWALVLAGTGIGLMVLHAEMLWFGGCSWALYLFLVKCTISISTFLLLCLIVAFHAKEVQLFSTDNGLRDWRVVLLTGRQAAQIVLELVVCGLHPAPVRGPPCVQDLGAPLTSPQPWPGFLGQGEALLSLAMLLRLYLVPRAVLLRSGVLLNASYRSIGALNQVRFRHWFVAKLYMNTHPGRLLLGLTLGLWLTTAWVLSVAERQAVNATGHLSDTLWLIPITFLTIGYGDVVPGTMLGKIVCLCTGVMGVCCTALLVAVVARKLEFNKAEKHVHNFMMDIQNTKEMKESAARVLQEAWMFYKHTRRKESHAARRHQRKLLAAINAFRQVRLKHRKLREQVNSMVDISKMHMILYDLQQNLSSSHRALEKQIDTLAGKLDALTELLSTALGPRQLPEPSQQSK
iberiotoxin, sequence (P24663 whole entry): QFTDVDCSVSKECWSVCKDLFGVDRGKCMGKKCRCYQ

Work on “iberiotoxin (from UniProt P24663 1-37) (peptide)” yielded a percent block of hIK1 current at 50 nM IBX of 15%.

Reference: patent US20030082683A1
